Test results from paper PMC3514286 (PLoS ONE, 2012).

T1: GroES (E. coli, UniProt P0A6F9 1-97)
T1 sequence: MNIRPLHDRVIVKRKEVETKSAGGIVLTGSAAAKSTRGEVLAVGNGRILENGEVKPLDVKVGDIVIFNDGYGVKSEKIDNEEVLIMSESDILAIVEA

T2: GroES L27A mutant (E. coli, UniProt P0A6F9 1-97, L27A)
T2 sequence: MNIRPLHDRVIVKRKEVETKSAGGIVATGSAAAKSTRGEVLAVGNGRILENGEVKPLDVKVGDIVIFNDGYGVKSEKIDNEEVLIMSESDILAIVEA


How the values were obtained:
[1] = target: T1, GroES; assay: cell-based or functional assay
[2] = target: mHsp10 L33A mutant (human, UniProt P61604 1-102, L33A); assay: cell-based or functional assay
[3] = target: T2, GroES L27A mutant; assay: cell-based or functional assay
[4] = target: mitochondrial Hsp10, hexa-histidine-tagged (human, UniProt P61604 1-102); assay: cell-based or functional assay
[5] = target: T1, GroES; assay: SPR; ProteOn XPR36; GroES or mHsp10 immobilised by amine coupling on a GLC chip; six concentrations of each mHsp60 variant injected; 20 mM Na-HEPES pH 7.5, 100 mM KCl, 10 mM MgCl2, 0.005% Tween, 2 mM ATP; apparent constants from equilibrium analysis; settings: both partners purified

Sequence of mHsp10 L33A mutant (P61604 whole entry L33A): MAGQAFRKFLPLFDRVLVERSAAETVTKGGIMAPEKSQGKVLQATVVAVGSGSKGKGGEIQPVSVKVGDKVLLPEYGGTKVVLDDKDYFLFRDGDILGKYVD
Sequence of mitochondrial Hsp10, hexa-histidine-tagged (P61604 whole entry): as the sequence (P61604 whole entry L33A) above, with A33L counted along it

Row | Binder | inhibition of the chaperonin's steady-state ATPase activity by co-chaperonin (2:1 co-chaperonin:chaperonin) [1] | inhibition of the chaperonin's steady-state ATPase activity by co-chaperonin (2:1 co-chaperonin:chaperonin) [2] | inhibition of the chaperonin's steady-state ATPase activity by co-chaperonin (2:1 co-chaperonin:chaperonin) [3] | inhibition of the chaperonin's steady-state ATPase activity by co-chaperonin (2:1 co-chaperonin:chaperonin) [4] | KA ratio (apparent KA relative to that of mHsp60 and mHsp10) [5]
1 | human mitochondrial Hsp60, wild type (natural protein, UniProt P10809 27-573, looked up) AKDVKFGADARALMLQGVDLLADAVAVTMGPKGRTVIIEQSWGSPKVTKDGVTVAKSIDLKDKYKNIGAKLVQDVANNTNEEAGDGTTTATVLARSIAKEGFEKISKGANPVEIRRGVMLAVDAVIAELKKQSKPVTTPEEIAQVATISANGDKEIGNIISDAMKKVGRKGVITVKDGKTLNDELEIIEGMKFDRGYISPYFINTSKGQKCEFQDAYVLLSEKKISSIQSIVPALEIANAHRKPLVIIAEDVDGEALSTLVLNRLKVGLQVVAVKAPGFGDNRKNQLKDMAIATGGAVFGEEGLTLNLEDVQPHDLGKVGEVIVTKDDAMLLKGKGDKAQIEKRIQEIIEQLDVTTSEYEKEKLNERLAKLSDGVAVLKVGGTSDVEVNEKKDRVTDALNATRAAVEEGIVLGGGCALLRCIPALDSLTPANEDQKIGIEIIKRTLKIPAMTIAKNAGVEGSLIVEKIMQSSSEVGYDAMAGDFVNMVEKGIIDPTKVVRTALLDAAGVASLLTTAEVVVTEIPKEEKDPGMGAMGGMGGGMGGGMF | 0% | 0% | 0% |  | 
2 | human mitochondrial Hsp60 R264K/E358K double mutant (natural protein, UniProt P10809 27-573, looked up, human mitochondrial Hsp60 with R264K and E358K, isolated from an error-prone PCR library; also called R264K/E358K mHsp60; source: expressed in bacteria, purified as oligomers) AKDVKFGADARALMLQGVDLLADAVAVTMGPKGRTVIIEQSWGSPKVTKDGVTVAKSIDLKDKYKNIGAKLVQDVANNTNEEAGDGTTTATVLARSIAKEGFEKISKGANPVEIRRGVMLAVDAVIAELKKQSKPVTTPEEIAQVATISANGDKEIGNIISDAMKKVGRKGVITVKDGKTLNDELEIIEGMKFDRGYISPYFINTSKGQKCEFQDAYVLLSEKKISSIQSIVPALEIANAHRKPLVIIAEDVDGEALSTLVLNKLKVGLQVVAVKAPGFGDNRKNQLKDMAIATGGAVFGEEGLTLNLEDVQPHDLGKVGEVIVTKDDAMLLKGKGDKAQIEKRIQEIIEQLDVTTSKYEKEKLNERLAKLSDGVAVLKVGGTSDVEVNEKKDRVTDALNATRAAVEEGIVLGGGCALLRCIPALDSLTPANEDQKIGIEIIKRTLKIPAMTIAKNAGVEGSLIVEKIMQSSSEVGYDAMAGDFVNMVEKGIIDPTKVVRTALLDAAGVASLLTTAEVVVTEIPKEEKDPGMGAMGGMGGGMGGGMF | 47% | 40% | 0% | 48% | 
3 | human mitochondrial Hsp60 E321K mutant (natural protein, UniProt P10809 27-573, looked up, human mitochondrial Hsp60 with E321K, isolated from an error-prone PCR library; also called E321K mHsp60; source: expressed in bacteria, purified as oligomers) AKDVKFGADARALMLQGVDLLADAVAVTMGPKGRTVIIEQSWGSPKVTKDGVTVAKSIDLKDKYKNIGAKLVQDVANNTNEEAGDGTTTATVLARSIAKEGFEKISKGANPVEIRRGVMLAVDAVIAELKKQSKPVTTPEEIAQVATISANGDKEIGNIISDAMKKVGRKGVITVKDGKTLNDELEIIEGMKFDRGYISPYFINTSKGQKCEFQDAYVLLSEKKISSIQSIVPALEIANAHRKPLVIIAEDVDGEALSTLVLNRLKVGLQVVAVKAPGFGDNRKNQLKDMAIATGGAVFGEEGLTLNLEDVQPHDLGKVGKVIVTKDDAMLLKGKGDKAQIEKRIQEIIEQLDVTTSEYEKEKLNERLAKLSDGVAVLKVGGTSDVEVNEKKDRVTDALNATRAAVEEGIVLGGGCALLRCIPALDSLTPANEDQKIGIEIIKRTLKIPAMTIAKNAGVEGSLIVEKIMQSSSEVGYDAMAGDFVNMVEKGIIDPTKVVRTALLDAAGVASLLTTAEVVVTEIPKEEKDPGMGAMGGMGGGMGGGMF | 30% | 26% | 0% |  | 1.43 ratio
